Measured values: patent US20250326839A1 (VIGIL NEUROSCIENCE, published 2025)

T1: human TREM2 (human, UniProt Q9NZC2 19-174, limits assumed)
T1 construct: also called triggering receptor expressed on myeloid cells 2
T1 sequence: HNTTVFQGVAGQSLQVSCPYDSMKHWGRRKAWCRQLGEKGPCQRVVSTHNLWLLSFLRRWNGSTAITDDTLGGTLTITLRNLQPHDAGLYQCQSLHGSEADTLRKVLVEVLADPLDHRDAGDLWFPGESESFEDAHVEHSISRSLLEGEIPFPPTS


Experiments:
human TREM2 [1] = target: T1, human TREM2; assay: 2nd screen, 100 nM
human TREM2 [2] = target: T1, human TREM2; assay: 1st screen, 110 nM Ab

Binding Signal (human TREM2 [1])	Binding Signal (human TREM2 [2])	Binder
0.56 fold over 6E7 parental antibody	0.2 fold over 6E7 parental antibody	V6 (antibody, V domains shown, also called 6E7 variant V6) VH: EVQLVQSGAEVKKPGESLKISCKGSGYSFTSMWIAWVRQMPGKGLEWMGIIYPGDSDTRYSPSFQGQVTISADKSISTAYLQWSSLKASDTAMYFCARQRTFYYDSSDYFDYWGQGTLVTVSS VL: DIQMTQSPSSVSASVGDRVTITCRASQGISSWLAWYQQKPGKAPKLLIYAASSLQNGVPSRFSGSGSGTDFTLTISSLQPEDFATYFCQQADSFPRTFGQGTKLEIK
0.72 fold over 6E7 parental antibody	0.79 fold over 6E7 parental antibody	V30 (antibody, V domains shown, also called 6E7 variant V30; LV-16/HV-202) VH: EVQLVQSGAEVKKPGESLKISCKGSGSSFTSYWIAWVRQMPGKGLEWMGIIYPGDSDTRYSPSFQGQVTISADKSISTAYLQWSSLKASDTAMYFCARQRTFYYDSSDYFDYWGQGTLVTVSS VL: DIQMTQSPSSVSASVGDRVTITCRASQGISSWLAWYQQKPGKAPKLLIYAASSLQNGVPSRFSGSGSGTDFTLTISSLQPEDFATYFCQQADSFPRTFGQGTKLEIK
0.54 fold over 6E7 parental antibody	0.67 fold over 6E7 parental antibody	V9 (antibody, V domains shown, also called 6E7 variant V9; LV-16/HV-201) VH: EVQLVQSGAEVKKPGESLKISCKGSGYSFTSYWIAWVRQMPGKGLEWMGIIYPGDSDTRYSPSFQGQVTISADKSISTAYLQWSSLKASDTAMYFCARQRGFYYDSSDYFDYWGQGTLVTVSS VL: DIQMTQSPSSVSASVGDRVTITCRASQGISSWLAWYQQKPGKAPKLLIYAASSLQNGVPSRFSGSGSGTDFTLTISSLQPEDFATYFCQQADSFPRTFGQGTKLEIK
0.68 fold over 6E7 parental antibody	0.76 fold over 6E7 parental antibody	V21 (antibody, V domains shown, also called 6E7 variant V21) VH: EVQLVQSGAEVKKPGESLKISCKGSGYSFTSYWIAWVRQMPGKGLEWMGIIYPGDSDTRYSPSFQGQVTISADKSISTAYLQWSSLKASDTAMYFCARQRTFYYDSSDFFDYWGQGTLVTVSS VL: DIQMTQSPSSVSASVGDRVTITCRASQGISSWLAWYQQKPGKAPKLLIYAASSLQNGVPSRFSGSGSGTDFTLTISSLQPEDFATYFCQQADSFPRTFGQGTKLEIK
0.32 fold over 6E7 parental antibody	0.11 fold over 6E7 parental antibody	V7 (antibody, V domains shown, also called 6E7 variant V7) VH: EVQLVQSGAEVKKPGESLKISCKGSGYSFTSEWIAWVRQMPGKGLEWMGIIYPGDSDTRYSPSFQGQVTISADKSISTAYLQWSSLKASDTAMYFCARQRTFYYDSSDYFDYWGQGTLVTVSS VL: DIQMTQSPSSVSASVGDRVTITCRASQGISSWLAWYQQKPGKAPKLLIYAASSLQNGVPSRFSGSGSGTDFTLTISSLQPEDFATYFCQQADSFPRTFGQGTKLEIK
0.71 fold over 6E7 parental antibody	0.3 fold over 6E7 parental antibody	V22 (antibody, V domains shown, also called 6E7 variant V22) VH: EVQLVQSGAEVKKPGESLKISCKGSGYSFTSYWIAWVRQMPGKGLEWMGIIYPGDSDTRYSPSFQGQVTISADKSISTAYLQWSSLKASDTAMYFCARQRTFYYDSSDYFDYWGQGTLVTVSS VL: DIQMTQSPSSVSASVGDRVTITCRASQGISSWLAWYQQKPGKAPKLLIYRASSLQNGVPSRFSGSGSGTDFTLTISSLQPEDFATYFCQQADSFPRTFGQGTKLEIK
0.77 fold over 6E7 parental antibody	0.28 fold over 6E7 parental antibody	V8 (antibody, V domains shown, also called 6E7 variant V8) VH: EVQLVQSGAEVKKPGESLKISCKGSGYSFTSYWIAWVRQMPGKGLEWMGIIYPGDSDTKYSPSFQGQVTISADKSISTAYLQWSSLKASDTAMYFCARQRTFYYDSSDYFDYWGQGTLVTVSS VL: DIQMTQSPSSVSASVGDRVTITCRASQGISSWLAWYQQKPGKAPKLLIYAASSLQNGVPSRFSGSGSGTDFTLTISSLQPEDFATYFCQQADSFPRTFGQGTKLEIK
0.42 fold over 6E7 parental antibody	0.17 fold over 6E7 parental antibody	V18 (antibody, V domains shown, also called 6E7 variant V18) VH: EVQLVQSGAEVKKPGESLKISCKGSGYSFTSYHIAWVRQMPGKGLEWMGIIYPGDSDTRYSPSFQGQVTISADKSISTAYLQWSSLKASDTAMYFCARQRTFYYDSSDYFDYWGQGTLVTVSS VL: DIQMTQSPSSVSASVGDRVTITCRASQGISSWLAWYQQKPGKAPKLLIYAASSLQNGVPSRFSGSGSGTDFTLTISSLQPEDFATYFCQQADSFPRTFGQGTKLEIK
0.4 fold over 6E7 parental antibody	0.4 fold over 6E7 parental antibody	V23 (antibody, V domains shown, also called 6E7 variant V23; LV-202/HV-15) VH: EVQLVQSGAEVKKPGESLKISCKGSGYSFTSYWIAWVRQMPGKGLEWMGIIYPGDSDTRYSPSFQGQVTISADKSISTAYLQWSSLKASDTAMYFCARQRTFYYDSSDYFDYWGQGTLVTVSS VL: DIQMTQSPSSVSASVGDRVTITCRASQGISSWLAWYQQKPGKAPKLLIYAASSLQNGVPSRFSGSGSGTDFTLTISSLQPEDFATYFCQQADSFPLTFGQGTKLEIK
0.89 fold over 6E7 parental antibody	0.82 fold over 6E7 parental antibody	V32 (antibody, V domains shown, also called 6E7 variant V32) VH: EVQLVQSGAEVKKPGESLKISCKGSGYSFTSYWIAWVRQMPGKGLEWMGIIYPGDSDTRYSNSFQGQVTISADKSISTAYLQWSSLKASDTAMYFCARQRTFYYDSSDYFDYWGQGTLVTVSS VL: DIQMTQSPSSVSASVGDRVTITCRASQGISSWLAWYQQKPGKAPKLLIYAASSLQNGVPSRFSGSGSGTDFTLTISSLQPEDFATYFCQQADSFPRTFGQGTKLEIK
0.48 fold over 6E7 parental antibody	0.59 fold over 6E7 parental antibody	V19 (antibody, V domains shown, also called 6E7 variant V19) VH: EVQLVQSGAEVKKPGESLKISCKGSGYSFTSSWIAWVRQMPGKGLEWMGIIYPGDSDTRYSPSFQGQVTISADKSISTAYLQWSSLKASDTAMYFCARQRTFYYDSSDYFDYWGQGTLVTVSS VL: DIQMTQSPSSVSASVGDRVTITCRASQGISSWLAWYQQKPGKAPKLLIYAASSLQNGVPSRFSGSGSGTDFTLTISSLQPEDFATYFCQQADSFPRTFGQGTKLEIK
0.7 fold over 6E7 parental antibody	0.76 fold over 6E7 parental antibody	V10 (antibody, V domains shown, also called 6E7 variant V10; LV-201/HV-15) VH: EVQLVQSGAEVKKPGESLKISCKGSGYSFTSYWIAWVRQMPGKGLEWMGIIYPGDSDTRYSPSFQGQVTISADKSISTAYLQWSSLKASDTAMYFCARQRTFYYDSSDYFDYWGQGTLVTVSS VL: DIQMTQSPSSVSASVGDRVTITCRASQGISSWLAWYQQKPGKAPKLLIYSASSLQNGVPSRFSGSGSGTDFTLTISSLQPEDFATYFCQQADSFPRTFGQGTKLEIK
0.42 fold over 6E7 parental antibody	0.79 fold over 6E7 parental antibody	V11 (antibody, V domains shown, also called 6E7 variant V11) VH: EVQLVQSGAEVKKPGESLKISCKGSGYSFTSYWIAWVRQMPGKGLEWMGIIYPGDSDTRYSPSFQGQVTISADKSISTAYLQWSSLKASDTAMYFCARQRTFYYDSSDYFDYWGQGTLVTVSS VL: DIQMTQSPSSVSASVGDRVTITCRASQGISSWLAWYQQKPGKAPKLLIYAASSLQNGVPSRFSGSGSGTDFTLTISSLQPEDFATYFCQQAASFPRTFGQGTKLEIK
0.73 fold over 6E7 parental antibody	0.61 fold over 6E7 parental antibody	V31 (antibody, V domains shown, also called 6E7 variant V31) VH: EVQLVQSGAEVKKPGESLKISCKGSGYSFTSYWIAWVRQMPGKGLEWMGIIYPGDSETRYSPSFQGQVTISADKSISTAYLQWSSLKASDTAMYFCARQRTFYYDSSDYFDYWGQGTLVTVSS VL: DIQMTQSPSSVSASVGDRVTITCRASQGISSWLAWYQQKPGKAPKLLIYAASSLQNGVPSRFSGSGSGTDFTLTISSLQPEDFATYFCQQADSFPRTFGQGTKLEIK
0.52 fold over 6E7 parental antibody	0.18 fold over 6E7 parental antibody	V20 (antibody, V domains shown, also called 6E7 variant V20) VH: EVQLVQSGAEVKKPGESLKISCKGSGYSFTSYWIAWVRQMPGKGLEWMGRIYPGDSDTRYSPSFQGQVTISADKSISTAYLQWSSLKASDTAMYFCARQRTFYYDSSDYFDYWGQGTLVTVSS VL: DIQMTQSPSSVSASVGDRVTITCRASQGISSWLAWYQQKPGKAPKLLIYAASSLQNGVPSRFSGSGSGTDFTLTISSLQPEDFATYFCQQADSFPRTFGQGTKLEIK
